Results as given in US20240009242A1 (STARKAGE THERAPEUTICS, published 2024).
Ends that are not written are not given here.

T1: hDEP1 Peptide #1 (human, also: conjugated to BSA)
T1 peptide: AGGTPSPIPDPSV

T2: hDEP1 Peptide #2 (human, also: conjugated to BSA)
T2 peptide: PVLGDIEGTPGFLQVHT

T3: hDEP1 Peptide #3 (human, also: conjugated to BSA)
T3 peptide: EVVPKEPALVLKWT

T4: hDEP1-ECD-His (human, UniProt Q12913 621-969)
T4 construct: Produced in CHO cells, purified on Ni-NTA; also called recombinant protein hDEP1-ECD-His
T4 sequence: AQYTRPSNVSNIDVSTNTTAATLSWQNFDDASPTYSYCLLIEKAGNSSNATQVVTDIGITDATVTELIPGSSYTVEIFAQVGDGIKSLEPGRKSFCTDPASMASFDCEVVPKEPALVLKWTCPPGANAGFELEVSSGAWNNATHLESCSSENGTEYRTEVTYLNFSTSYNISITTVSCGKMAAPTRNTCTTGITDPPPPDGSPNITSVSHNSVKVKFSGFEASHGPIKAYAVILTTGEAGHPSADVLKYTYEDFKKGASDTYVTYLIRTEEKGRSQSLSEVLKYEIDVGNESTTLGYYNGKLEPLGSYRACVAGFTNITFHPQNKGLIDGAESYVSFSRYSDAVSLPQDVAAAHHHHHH

T5: murine counterpart of hDEP1-ECD-His (murine, UniProt Q64455 524-870)
T5 construct: also called mDEP1
T5 sequence: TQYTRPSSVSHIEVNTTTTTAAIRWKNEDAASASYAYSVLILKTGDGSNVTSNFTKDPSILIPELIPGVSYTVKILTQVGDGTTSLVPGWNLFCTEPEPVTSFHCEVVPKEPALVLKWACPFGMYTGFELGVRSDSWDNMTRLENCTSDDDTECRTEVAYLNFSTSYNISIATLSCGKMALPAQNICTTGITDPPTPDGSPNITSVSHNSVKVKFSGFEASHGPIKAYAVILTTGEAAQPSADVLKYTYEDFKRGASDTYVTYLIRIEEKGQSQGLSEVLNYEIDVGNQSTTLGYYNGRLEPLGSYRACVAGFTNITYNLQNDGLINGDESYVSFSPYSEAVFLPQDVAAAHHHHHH

T6: hDEP1 Peptide #4 (human, also: conjugated to BSA)
T6 construct: also called hDEP1 Peptide #4/BSA
T6 peptide: ADVLKYTYEDFKKGASDT

B1: 5738-10-R4A-G12 (scFv, V domains shown)
VH: QVQLKESGAELAKPGSSVKISCKASGYTFTSDSISWIKQTTGQGLEYIGYIHPGSGVTNYNEKFKGKATLTVDKSSSTAFMQLSSLTPDDSAIYYCARYFDYWGQGVMVTVSS
VL: DILMTQSPSSMSVSLGDTVTITCRASQDVGIYVNWFQQKPGKSPRRMIYRATNLADGVPSRFSGSRSGSDYSLTISSLESEDVADYHCLQYDEYPPTFGGGTKLELK
notes: anti-hDEP1 scFv, rat 10 library, format VH/VL-6xHis-Flag
B2: 5738-13-R4A-D11 (scFv, V domains shown)
VH: QVQLKESGGGLVQPGRSLKLSCAASGFSFGDYNMAWVRQAPKKGLEWVATISYDDYRTYYRDSVKGRFTISRDDAKATLYLQMDSLRSEDTATYYCARQGGIIRGVWFPYWGQGTLVTVSS
VL: DIQMTQTPASLSASLEEIVTITCQASQDIGNWLAWYQQKPGKSPHLLIYGATTLADGVPSRFSGSRSGTQYSLKISRLQAEDIGIYYCQQASSAPWTFGGGTKLELK
notes: anti-hDEP1 scFv, rat 13 library, format VH/VL-6xHis-Flag

Columns and labels:
hDEP1 Peptide #1 = target: T1, hDEP1 Peptide #1; test: indirect ELISA, purified soluble scFv
hDEP1 Peptide #2 = target: T2, hDEP1 Peptide #2; test: indirect ELISA, purified soluble scFv
hDEP1 Peptide #3 = target: T3, hDEP1 Peptide #3; test: indirect ELISA, purified soluble scFv
hDEP1-ECD-His = target: T4, hDEP1-ECD-His; test: indirect ELISA, purified soluble scFv
[1] = target: T5, murine counterpart of hDEP1-ECD-His; test: indirect ELISA, purified soluble scFv
BSA = target: T7, BSA (UniProt P02769 25-607); test: indirect ELISA, purified soluble scFv
T7 construct: Negative control antigen in the ELISAs; also called negative control (BSA only)

hDEP1 Peptide #4 [2] = target: T6, hDEP1 Peptide #4; test: ELISA, soluble scFv produced in microtiter plate
Description: 96 isolated clones from the second, third and fourth rounds of panning were hand-picked and used to produce the respective soluble scFv in microtiter plate. Each clone was then tested in ELISA against hDEP1 Peptide #4/BSA.

hDEP1 Peptide #4 [3] = target: T6, hDEP1 Peptide #4; test: indirect ELISA, purified soluble scFv

T7 sequence (P02769 25-607 limits assumed): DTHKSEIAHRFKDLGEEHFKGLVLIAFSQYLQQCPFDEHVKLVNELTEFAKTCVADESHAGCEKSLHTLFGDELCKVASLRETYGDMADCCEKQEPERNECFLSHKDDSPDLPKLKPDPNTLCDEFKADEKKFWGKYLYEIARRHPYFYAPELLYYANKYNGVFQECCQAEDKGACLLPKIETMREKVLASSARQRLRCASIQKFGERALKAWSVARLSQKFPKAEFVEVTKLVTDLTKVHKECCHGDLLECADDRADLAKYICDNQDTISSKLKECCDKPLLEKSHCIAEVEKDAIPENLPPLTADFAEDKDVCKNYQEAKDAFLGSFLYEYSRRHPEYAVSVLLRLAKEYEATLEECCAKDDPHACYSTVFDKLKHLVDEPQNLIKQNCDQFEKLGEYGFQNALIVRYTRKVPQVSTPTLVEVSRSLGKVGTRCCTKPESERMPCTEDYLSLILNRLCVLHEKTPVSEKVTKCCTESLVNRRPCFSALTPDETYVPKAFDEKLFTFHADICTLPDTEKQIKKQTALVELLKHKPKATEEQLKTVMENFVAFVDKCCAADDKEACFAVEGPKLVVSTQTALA

binding result (hDEP1 Peptide #1) | binding result (hDEP1 Peptide #2) | binding result (hDEP1 Peptide #3) | binding result (hDEP1-ECD-His) | binding result [1] | binding result (BSA) | binding result (hDEP1 Peptide #4 [2]) | binding result (hDEP1 Peptide #4 [3]) | Binder
no binding | no binding | no binding | binds | no binding | no binding | binds | – | B1
no binding | no binding | no binding | – | no binding | no binding | – | no binding | B2
